According to the Human Domainome abundance scans (Beltran et al. 2025):

B1: Far upstream element-binding protein 2, residues 142 to 214; numbered along this chain, Q92945 (parent)
chain: RTSMTEEYRVPDGMVGLIIGRGGEQINKIQQDSGCKVQISPDSGGLPERSVSLTGAPESVQKAKMMLDDIVSR

Variants of: B1
Experiment: abundance fitness (aPCA) (normalised: wild type 0, dead -1); higher = more abundant; growth selection in yeast, the domain comes from the species named
Conditions: Homo sapiens

Abundance fitness, by site and new letter:
S33: I -0.452; T -0.006; E -0.854; C -0.053; L -0.575
G22: A -0.126; V -0.312; M -0.115; S -0.148; W -0.308; C -0.204; I -0.34; N -0.167; K -0.12; Y -0.226; H -0.234; E -0.071; T -0.192; Q -0.026; R -0.032; L -0.234; P -0.572; D -0.027
D32: H -0.072; E -0.101; P -1.1; V -0.04; K -0.043; Y -0.167; Q 0.025; F -0.364; W -0.243; R -0.085; I -0.12; C -0.141; M 0.019; L -0.005; T -0.074; G -0.156; S -0.047; A -0.006
K36: N 0.073; A -0.082; H -0.06; S -0.066; V -0.001; Q -0.034; T 0.005; G -0.431; M -0.03; D 0.021; F -0.32; R -0.058; W -0.283; C -0.182; E -0.036; Y -0.047; P -0.918; L -0.043; I -0.095
G34: I -0.877; P -1.16; V -0.96; N -0.219; L -0.396; C -0.356; Q -0.247; R -0.307; T -0.537; F -0.887; M -0.391; H -0.384; E -0.243; D -0.274; S -0.357; A -0.365; K -0.319; Y -0.998; W -1.02
I29: H -0.984; N -0.869; F -0.682; T -0.745; R -0.995; W -0.981; E -0.736; Q -0.841; Y -0.971; G -0.856; M -0.524; A -0.811; S -0.819; K -0.787; V -0.185; P -0.849
I26: H -0.485; F -0.492; A -0.394; K -0.352; Y -0.769; V -0.146; G -0.641; T -0.451; Q -0.35; C -0.524; N -0.852; M -0.054; P -0.639; S -0.693; R -0.533; W -0.215; D -0.549; E -0.685
K28: R 0.002; A -0.144; C -0.597; T -0.209; V -0.419; N -0.256; L -0.239; I -0.269; H -0.162; E -0.243; W -0.51; P -0.751; M -0.085; D -0.431; Y -0.337; F -0.4; G -0.507
Q30: V -0.132; D -1.02; T -0.17; R -0.066; A -0.067; M 0.107; W -0.507; H -0.384; E -0.067; C -0.12; L -0.241; S -0.078; N -0.455; K -0.181; G -0.24; Y -0.866; F -0.252; P -0.809
N27: K 0.013; H -0.094; A -0.095; I -0.109; G -0.137; R 0.017; F -0.081; L -0.076; T 0.007; M -0.085; D -0.029; W -0.209; P -0.476; Q -0.018; S -0.054; E -0.006
Q38: C -0.019; D -0.112; A 0.02
